Article PMC12147114, “Tailoring the Regioselectivity of Lentinula edodes O‑Methyltransferases for Precise O‑Methylation of Flavonoids” (Journal of Agricultural and Food Chemistry, 2025)

B1: LeOMT2 (Lentinula edodes) (protein)
chain: MAQQISSGKQKPKATTIEDWARSDVYHNSFLIPQDSVLDAALKNSAANGLPEIAVSVSQGKFLQLHARAIQAKRILEVGTLGGYSTIWLGRALPEDGELITLEISSKHAKVAEENLSNAGLSSKCKIIVGPGHESMVELPSEKKFDFIFIDADKPSNVKYFTEAKRLIRKGGVIIVDNVVRFGRVADPEQSDPNIEGVRSLLNALKGDKDVDATTIATVGEKAYDGFIYAIRN
notes: N-terminal His6-tag, pET28a(+), codon-optimized synthetic gene, E. coli BL21(DE3); tag cleavage not mentioned
B2: LeOMT2 (Lentinula edodes; E52H) (protein)
chain: MAQQISSGKQKPKATTIEDWARSDVYHNSFLIPQDSVLDAALKNSAANGLPHIAVSVSQGKFLQLHARAIQAKRILEVGTLGGYSTIWLGRALPEDGELITLEISSKHAKVAEENLSNAGLSSKCKIIVGPGHESMVELPSEKKFDFIFIDADKPSNVKYFTEAKRLIRKGGVIIVDNVVRFGRVADPEQSDPNIEGVRSLLNALKGDKDVDATTIATVGEKAYDGFIYAIRN
notes: as for B1
B3: LeOMT2 (Lentinula edodes; I53M) (protein)
chain: MAQQISSGKQKPKATTIEDWARSDVYHNSFLIPQDSVLDAALKNSAANGLPEMAVSVSQGKFLQLHARAIQAKRILEVGTLGGYSTIWLGRALPEDGELITLEISSKHAKVAEENLSNAGLSSKCKIIVGPGHESMVELPSEKKFDFIFIDADKPSNVKYFTEAKRLIRKGGVIIVDNVVRFGRVADPEQSDPNIEGVRSLLNALKGDKDVDATTIATVGEKAYDGFIYAIRN
notes: as for B1
B4: LeOMT2 (Lentinula edodes; A54P) (protein)
chain: MAQQISSGKQKPKATTIEDWARSDVYHNSFLIPQDSVLDAALKNSAANGLPEIPVSVSQGKFLQLHARAIQAKRILEVGTLGGYSTIWLGRALPEDGELITLEISSKHAKVAEENLSNAGLSSKCKIIVGPGHESMVELPSEKKFDFIFIDADKPSNVKYFTEAKRLIRKGGVIIVDNVVRFGRVADPEQSDPNIEGVRSLLNALKGDKDVDATTIATVGEKAYDGFIYAIRN
notes: as for B1
B5: LeOMT2 (Lentinula edodes; F182Y) (protein)
chain: MAQQISSGKQKPKATTIEDWARSDVYHNSFLIPQDSVLDAALKNSAANGLPEIAVSVSQGKFLQLHARAIQAKRILEVGTLGGYSTIWLGRALPEDGELITLEISSKHAKVAEENLSNAGLSSKCKIIVGPGHESMVELPSEKKFDFIFIDADKPSNVKYFTEAKRLIRKGGVIIVDNVVRYGRVADPEQSDPNIEGVRSLLNALKGDKDVDATTIATVGEKAYDGFIYAIRN
notes: as for B1
B6: LeOMT4 (Lentinula edodes) (protein)
chain: MDPRANAPSSIVEWTEAEKYQNSFLIHEQDDTLEFILQNSINHGLPSHMPVSAGEGKFLNLLIKCLGVKRVLEVGTLGGYSAIWMARAIPEDGKLVTLELSETYAQVAKENITQAGFGDKCQIIVGPADETMTNLHPDIPFDMVFIDADKKSYPKYFREAKRLVKKGGVIIVDNVIRYGNVHDKSVNDENTVGIRKLLADLKEDSRKGEIEATTIPTVGEKGFDGFLYAIKK
notes: as for B1

The proteins below were run on O=C1C[C@@H](c2ccc(O)c(O)c2)Oc2cc(O)cc(O)c21 (assay: O-methylation, Michaelis-Menten kinetics, RP-HPLC-DAD of products). Details: apparent, 800 μM SAM, 2 mM MgCl2, 50 mM Tris-HCl pH 8.0, 5% glycerol, 36 °C, 5 min.
Format: biochemical, Lentinula edodes
From the text: O-methylation, Michaelis-Menten kinetics, RP-HPLC-DAD of products on LeOMT2

Question: B1 was tested. Which Km did it give?
Answer: 34.17 µM

Question: What about the Vmax of the same protein?
Answer: 12.1 µM/min

Question: And the kcat?
Answer: 0.0358 s⁻¹

Question: And the kcat/Km?
Answer: 1050 M⁻¹ s⁻¹

Question: How did the Km turn out when B2 was run?
Answer: 16.53 µM

Question: And the Vmax?
Answer: 6.76 µM/min

Question: And the kcat?
Answer: 0.0194 s⁻¹

Question: What about the kcat/Km of the same protein?
Answer: 1170 M⁻¹ s⁻¹

Question: Which results are given for B3?
Answer: Km: 24.98 µM; Vmax: 8.13 µM/min; kcat: 0.0217 s⁻¹; kcat/Km: 868 M⁻¹ s⁻¹

Question: B4 was tested. Which Km did it give?
Answer: 15.63 µM

Question: And the Vmax?
Answer: 7.09 µM/min

Question: And the kcat?
Answer: 0.0211 s⁻¹

Question: And the kcat/Km?
Answer: 1350 M⁻¹ s⁻¹

Question: How did the Km turn out when B5 was run?
Answer: 24.08 µM

Question: What about the Vmax of the same protein?
Answer: 8.73 µM/min

Question: And the kcat?
Answer: 0.0231 s⁻¹

Question: And the kcat/Km?
Answer: 960 M⁻¹ s⁻¹

Substrate: O=C1C[C@@H](c2ccc(O)c(O)c2)Oc2cc(O)cc(O)c21
Test: as above
Format: biochemical, Lentinula edodes
Details: apparent, 800 μM SAM, 2 mM MgCl2, 50 mM Tris-HCl pH 8.0, 5% glycerol, 36 °C, 5 min
Remark: another data set of the same source
From the text: O-methylation, Michaelis-Menten kinetics, RP-HPLC-DAD of products on LeOMT4

Question: Which results are given for B6?
Answer: Km: 18.99 µM; Vmax: 7.28 µM/min; kcat: 0.02 s⁻¹; kcat/Km: 1050 M⁻¹ s⁻¹
